# Measurements as given in the DeepSol protein solubility set.
# Assay: soluble on expression in E. coli; label from the status in PepcDB or PDB records
row,Sequence,soluble on expression in E. coli
1,MYATSTQKREWTYTPEKLAAMRLEINIKFRQKYESVMQPDELELFVTPEEELRMQRSIEDAALKFADKFRPHIWPSVKWTALAFFKRAFLVWVPSDTSIRMVMMACFYLAMKIDEFYITIEDFVKNMNVGEPRQNAERILKLEPELMKILDYNLTVHCPYRPYEGHLMDMKTRMLLLNFDLESIRRDSMRFFQNALQTDVLLLYPPSQIALAAINFGLHAQGKSDEILREFLRKLIGIEEDSWAHRDARPEDLEKLEKTVTRVNQIMREVDRNFVAVTEQERENHKSQLARIQALIPALDERRKEQWLAGGGVGLMPGELAEQPVDSDDEIN,not soluble
2,MYDWFKQMRKESPVYYDGKVWNLFKYEDCKMVLNDHKRFSSNLTGYNDKLEMLRSGKVFFDIPTRYTMLTSDPPLHDELRNLTADAFNPSNLPVDFVREVTVKLLSELDEEFDVIESFAIPLPILVISKMLGINPDVKKVKDWSDLVALRLGRADEIFSIGRKYLELISFSKKELDSRKGKEIVDLTGKIANSNLSELEKEGYFILLMIAGNETTTNLIGNAIEDFTLYNSWDYVREKGALKAVEEALRFSPPVMRTIRVTKEKVKIRDQVIDEGELVRVWIASANRDEEVFKDPDSFIPDRTPNPHLSFGSGIHLCLGAPLARLEARIALEEFAKKFRVKEIVKKEKIDNEVLNGYRKLVVRVERT,soluble
3,MYFPSGSDPFAVGEDLGVWAPADHQRIIAKLTTGLGVLFYHTKAIHLEPLPETMLDDAKASLVPDLSLVDNESSETPIIIEVCKTAGLKGDLRKVIQLIDDGIYGIREGFVYNYKTQQWLRYRFGDGGLTTESSFSEILNLDLNTFL,not soluble
4,MYIPKYFKVTNAEEIWNFVQENSFGTVVTTEQGKPIATHLPLGFNKKDDHYYITGHFAYGNPQWRTFEACEDVLVMFQGPHAYISSSWYSRENVPTWNYQAVHMYGKASMLEKDELAEELTIMLEQKTPTQAFSVLWDKLSPKLLESELKGIVGFKIKVEDIQAAYKLSQNRNETDYMNVIEQLQNEENPNAKQMAELMEDKLKKQI,not soluble
5,MYIRINNGVTECNIRLVGTAHVSDDSITEVKNAIVETDPELVAIELDKDRFVAMFQNKKNDVDLKSVIKQGKVGIYIVHSILANFQKNIGEQFGIKPGSEMKKATDLAIQYQKPISLIDRPINITLSRTVNKMTFKEKFDFVIGLLTEQNVELDEKAINEMVSNADDLILLLKDISPSIYETLVNERDKYMAKNLFEASKGKENIVAVVGAGHVPGIKNYLKKMESGEDIDLKSLM,not soluble
6,MYKAFYGLSDNPFSIAPNPHYLFLSDRHREALAHLTYGLGETGGFVLLTGEVGTGKTTVSRCLLGQLPDNTDTAFILNPSLTELELLATLCDELKISYGENPTLKQLTDHLSRFLLANHEKGRKTVLIIDEAQHLRAEVLEQLRLLTNLETDTKKLLQVILIGQPELQLLLKRQELRQLAQRITARYHLLPLNEDEITLYVLHRLQVAGRFEPLFTRKAIKVLHKYSGGIPRLINLLCERALMAGYAQSKVPIDHHMVRQAAAEVLGEEKPSQNKFLWPSAIAAALVLTFGVSYWLFTDHAVVATVANENVTQPKQTVIAENAVQQSQTALTNTAPAITLAQTPAAPDPNLRVLQEAIKQSRQIDTAFAGLFNVWGKVPFKGLTACQSAFEQGLSCYQQQGNWMSLTRLNYPAVVYLVDDNQQDFYGAVIAVDGEQLLMQLGEQQLWVERTWFNQHFSGTFEILWQAPNLPMMEISQKSSPGQLQWLENALAHVAKRPSRRVSQFDLKLENDLKAFQSQHGLKADGIAGNQTLVRLNLYLSDQGPRLTDNGAQS,not soluble
7,MYKLIAIDMDGTLLNDHHEVTEEVRDALHAAKAEGVKIVLCTGRPIGGVQRYLDELNLIEEGDYVIAYNGALVQNTHTNEVVSELSLGYDDLTSLYDLSLELKTPMHFFDSSNLYTPNRDISEFTVYESYVTQVPLHFRKIDEVPKDILIPKVMFIDKPENLSRVITSIPKDVREKYTMVRSAPFFYEILHSEASKGNAVRQLAQLLGIEQAEVMCIGDNGNDLTMIEWAGCGVAMANAIPEVLEAANFQTRSNNEHGVAHAIHELVLAKLEHHHHHH,soluble
8,MYLQDRSPYMENSGSSNDRNSGKTEYQLTLIGALKKEIEIARRLDPEKLAAEIKKTGFSCQNCGKCCKRAFGDNRVVLTPQEIEKIQKYTDLSKLEVAGPLIPDISCPEEAGEGEEDRVAENSSIMPEIDEKKTSEPFRTPELLKEDIDPDGNIHAYGWMLRRKRNGDCVFLEKDTNRCRIYPVRPMLCSTYPFYIEGLKLYTCECEGLGVHISAEESRKLAGSLLSRYVSELEDTLAMYEKYEDFERTEKGHEIAKNNLEKGTCIYIVHDSRGITKIIDLEHHHHHH,soluble
9,MYMASISLKKGQKVDLTKTNPGLSKVLVGLGWDTNRYDGQNDFDLDVSIFLVGANGKVSGAEDFVFYNNPKGANGAVEHLGDNRTGEGEGDDEAIKVDLKNVPAHIERICFTITIYDGEGRSQNFGQVSNSFVRILDEEKNAELIRYDLGEDFSIETAVVVGELYRHAGDWKFNAIGSGFQGGLASLCNNFGLDVE,not soluble
10,MYNDRHLSLFHLLFRAKIQRAINYFFMITFSEIQLLRGGKPLLEQASATIHPGDKVGLVGKNGCGKSTLFALLKDELTIDAGSFSKPAHWELAWVAQETPALDRTALEYVIDGDREYRELERQLMDAEAADNGTKVADLHGKIEMVGGYSIRARASELLDGLGFTQEQMSWSLTQFSGGWRMRLNLAQALICRSDLLLLDEPTNHLDLDAVMWLERWLQSYPGTLILISHDRDFLDPIVNRIVHIENQTLNEYTGNYSSFETQRAQKMLQQQAIYQKQQKQMAHMQSYIDRFRYKASKARQAQSRIKALERMEKVLPAQFDNPFSFEFREPAALPNPILMMDQVAAGYGDHLILEKIRLNLVPGSRIGLLGRNGAGKSTLIKLLSGELKPQSGDCTYSQGVKIGYFAQHQLETLHPEETPLQHMMQIAPDKNELELRNYLGSFGFHGEKALEKVAPFSGGEKARLVLALIVWQKPNLLLLDEPTNHLDLDMRQALTLALQSYEGAMVIVSHDRYLLRATTDDLYLVHDHQVGPFDGDLNDYYKWLTDQQKAERKETQPTNTANSANSAAAKKEQKRREADFRKLTAPIRKKLTQLEEKLDKLNHVVSEMEAQLSDTSLYEAQNKATLTEVLAKQAAAKSELEQVELEWMAEQETLEEMERKFNG,not soluble
11,MYNITLPVLGTRLKQIREHVGYSQAQLAEQLNCKQNAISNLELGKGGSLKLLFQVLNFYSNYVFIDLIFSEKFYLISNTEEDEAQKANYNSVIIEIIRQSEKNYENAMSNAKKELEANLQKAINLLQP,not soluble
12,MYNNSAPYLNHSSLNTVRKKVVTVRRVLPSLPPPPPPPPSLYPPCSVFKVPYIPQRVYRSINSTLYNNQSFASSSRGFYRKQKPIPKSHPKHQEHHHHAKASVSTPVHSSSTSRNSSVAPTPQRTVSTSSSSSSAATSARVSEDESDSDSTPGEVQRRKTSVLSNDKRRRRASFSSTSIQSSPERQRDVSSSSRTSSSSSTSSMKQEETADEKSRKRKLIMSSDESSTTGSTATSVVSSRQSSLEPQQEKTDGEPPKKKSQTDFISERVSKIEGEERPLPEPVETSGPIIGDSSYLPYKIVHWEKAGIIEMNLPANSIRAHEYHPFTTEHCYFGIDDPRQPKIQIFDHSPCKSEPGSEPLKITPAPWGPIDNVAETGPLIYMDVVTAPKTVQKKQKPRKQVFEKDPYEYYEPPPTKRPAPPPRFKKTFKPRSEEEKKKIIGDCEDLPDLEDQWYLRAALNEMQSEVKSADELPWKKMLTFKEMLRSEDPLLRLNPIRSKKGLPDAFYEDEELDGVIPVAAGCSRARPYEKMTMKQKRSLVRRPDNESHPTAIFSERDETAIRHQHLASKDMRLLQRRLLTSLGDANNDFFKINQLKFRKKMIKFARSRIHGWGLYAMESIAPDEMIVEYIGQTIRSLVAEEREKAYERRGIGSSYLFRIDLHHVIDATKRGNFARFINHSCQPNCYAKVLTIEGEKRIVIYSRTIIKKGEEITYDYKFPIEDDKIDCLCGAKTCRGYLN,soluble
13,MYNSMDEVPVSLHASIDTGDGEFDMNALISNNAHILFIVLDSLRYDIALQEQTAGNTPNLNHYGQWTKCEAAGNFTWPSHHAMFSGFMPKPIDDTVNQTMLFFPKDIGLGRKGPKNAFAFDDATWIKSLENKGYQTICIGGVSFFNNRSGMGKVFPSMFKESYWHPRFACTVKESMDNQIHYIQKIMAERAGSQPVMMYINIDTIHYPNHFYVEGAAPGDTVETHAAALRYIDARIDGLLNIFRQTGGATFVIVCSDHGTCYGEDGKYFHSFNHPIVNTVPYMHFLLSGNHLEHHHHHH,soluble
14,MYPHIHRYKFESKNTNRHNHKIIGYTDNMIGIEAFHIHAYYGISSYNGHTHYFSGFTGLPIKTENGHIHRIEGILESASDHEHVYRNYTDENIEYISHSILKHAYV,not soluble
15,MYQHDIGKRSAKVKNVVERGAVKKFAEAIGDPNPIYWDEETGKRSRYGRNIAPPTFPRVFDYGVIEGLKLPAKGLIHGEQHFHYERPLFVGEELYCYAEVKDYFEKQSSMGLLGFLVIANNGEDADGNLIFTSTSTIMINEAVRKAMSV,soluble
16,MYQNFVTKHDTAIQTSRFSVTGNVIPAAPTGNIPVINGGSITAERAVVNLYANMNVSTSSDGSFIVAMKVDTSPTDPNCVISAGVNLSFAGTSYPIVGIVRFESASEQPTSIAGSEVEHYPIEMSVGSGGVCSARDCATVDIHPRTSGNNVFVGVICSSAKWTSGRVIGTIATTQVIHEYQVLQPLK,soluble
17,MYRIIEAPNSGKYPFSHSLLIGKSCIIDTGSGEALAPLRVDCVLNTHWHEDHIAMNSIGRKVLAHPLDAEAIESYEEFRRRYGIGDSVRLFINFEFGQVDDVFEDGEQLEFEGVSVEVIHTPGHSAGHCCFVINNEAVFLGDIDLTSFGPWYGCLDCDVDDFVRSVKKMMREVERRDIEIAIPSHGRPVYGKEEIIGAMREYLKKIFERDKAIRELVRLGVDPVGKGIIYRKIPEPREIYLHFEKIMVEKHLTTSLDEFCLDLEHHHHHH,not soluble
18,MYRNFFSLSELPFSISPDPKYLFMSERHREALTHLTYGLGEVGGFALLTGEVGTGKTTISRCLMEQLPQNTQAAFILNPTLSCQELLATLCDQLKIRYRKTGASLKTLTDKISEKLLKNHENDINTLLIIDEAQHLQPEVLEQLRLLTNLETNTKKLLQVILIGQPELQQLLQRRDLRQL,not soluble
19,MYSDDLLLEEDSADESSLANAFSRGMQLGSTDASSYSRRFNSNASTSSSNPTTQRRYAPNQAFSQVETGSPPSNDPHARFGQHIPGSQYIPHVSQNSPSRLGQQPPQRYNHGRPNAGRTMDRNHMNAQLPPSNTNSGGQQRSPRSSSYTNGVPWGRRTNNHVPNVPSTSHGRVDYGSIA,soluble
20,MYSDLAGKVVVITGSATGLGRAMGVRFAKEKAKVVINYRSRESEAHDVLEEIKKVGGEAIAVKGDVTVESDVVNLIQSAVKEFGTLDVMINNAGIENAVPSHEMPLEDWNKVINTNLTGAFLGSREAIKYFVEHDIKGSIINMSSVHEKIPWPLFVHYAASKGGVKLMTETLAMEYAPKGIRVNNIGPGAINTPINAEKFADPKKRADVESMIPMGYIGKPEEIAAVATWLASSEASYVTGITLFADGGMTLYPSFQAGRG,not soluble
